Source: patent US20250136682A1 (ACADEMIA SINICA, published 2025)

T1: mouse Siglec-3 expressed in HEK-293T cells (mouse, UniProt Q63994 17-403)
T1 construct: whole, on cells
T1 sequence (looked up): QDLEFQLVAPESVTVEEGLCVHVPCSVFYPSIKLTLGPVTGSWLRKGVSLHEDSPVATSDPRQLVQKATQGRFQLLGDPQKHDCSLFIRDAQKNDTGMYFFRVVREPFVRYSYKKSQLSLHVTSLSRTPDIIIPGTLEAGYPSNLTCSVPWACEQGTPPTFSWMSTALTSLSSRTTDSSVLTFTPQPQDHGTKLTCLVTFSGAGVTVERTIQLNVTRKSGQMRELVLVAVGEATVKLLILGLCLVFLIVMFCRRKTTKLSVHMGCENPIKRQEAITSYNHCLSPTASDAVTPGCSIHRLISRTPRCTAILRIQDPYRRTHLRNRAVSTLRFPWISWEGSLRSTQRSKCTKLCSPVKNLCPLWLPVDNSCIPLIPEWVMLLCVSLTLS


Key:
[1] = molecular target: T2, human Siglec-3 (CD33) on cells (human, UniProt P20138 18-364); experiment: flow cytometry, APC-conjugated antibody titrated on human monocytes (endogenous Siglec-3)
T2 construct: whole, on cells; also called human endogenous or exogenous Siglec-3
Protocol: (§1) For establishment of titration curves, human monocytes and moDCs (3×10⁴) were incubated with the indicated concentrations of the APC-conjugated anti-Siglec-3 antibodies 4H3-3A, 10C8, as well as hIgG1 control, and analyzed by a flow cytometry instrument (FACSVerse; BD Biosciences). Mean fluorescence intensity (MFI) was analyzed by a software FlowJo (TreeStar, Inc.).

[2] = molecular target: T2, human Siglec-3 (CD33) on cells; experiment: flow cytometry on moDCs (data not shown)
[3] = molecular target: T2, human Siglec-3 (CD33) on cells; experiment: flow cytometry, APC-conjugated antibody titrated on human monocyte-derived dendritic cells (endogenous Siglec-3)
Protocol: as §1

[4] = molecular target: T3, human CD33.Fc (recombinant extracellular domain of human Siglec-3 fused with Fc portion of hIgG1) (human, UniProt P20138 18-259); experiment: SPR (BIAcore 2000), human CD33.Fc immobilized on CM5 chip
T3 construct: extracellular domain; also called Siglec-3.Fc; not shown: Fc portion of human IgG1
Protocol: Human IgG1 was first mobilized on channel one of a CM5 chip as the blank to determine the bulk effect of injection itself, whereas human CD33.Fc were immobilized on channel two for analysis of its kinetic interaction with wild various clones of anti-CD33 mAbs, respectively. The interaction between […] and anti-CD33 mAbs was determined by surface plasmon resonance using a Biacore instrument (BIAcore 2000).

[5] = molecular target: T1, mouse Siglec-3 expressed in HEK-293T …; experiment: flow cytometry, antibody titrated on HEK-293T cells expressing exogenous mouse Siglec-3

T3 sequence (P20138 18-259): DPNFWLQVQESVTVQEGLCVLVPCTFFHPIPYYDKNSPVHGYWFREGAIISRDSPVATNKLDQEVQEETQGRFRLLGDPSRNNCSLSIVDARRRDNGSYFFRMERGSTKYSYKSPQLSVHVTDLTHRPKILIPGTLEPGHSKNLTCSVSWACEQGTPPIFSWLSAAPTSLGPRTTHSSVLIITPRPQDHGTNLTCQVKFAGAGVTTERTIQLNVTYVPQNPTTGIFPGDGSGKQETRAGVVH
T2 sequence (P20138 18-364): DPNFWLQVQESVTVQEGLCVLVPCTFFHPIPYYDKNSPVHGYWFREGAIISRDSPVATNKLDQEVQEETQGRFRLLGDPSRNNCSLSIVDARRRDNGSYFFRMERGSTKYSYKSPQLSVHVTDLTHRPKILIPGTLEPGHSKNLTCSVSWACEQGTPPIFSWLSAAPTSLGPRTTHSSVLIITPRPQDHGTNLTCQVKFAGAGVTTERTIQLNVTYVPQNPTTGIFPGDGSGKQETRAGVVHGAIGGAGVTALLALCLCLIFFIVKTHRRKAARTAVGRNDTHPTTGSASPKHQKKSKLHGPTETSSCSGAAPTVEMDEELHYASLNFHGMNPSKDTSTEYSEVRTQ

Binder	binding result [2]	also measured
anti-Siglec-3 antibody 10C8 (antibody, V domains shown) VH: EVQLVESGGGLVQPGGSLRLSCAASGFTINNGWIHWVRQAPGKGLEWVAGIGPYGGSTFYADSVKGRFTISADTSKNTAYLQMNSLRAEDTAVYYCSRFIGSYSHMDYWGQGTLVTVSS VL: DIQMTQSPSSLSASVGDRVTITCRASQDVYYYVAWYQQKPGKAPKLLISSAGGLYSGVPSRFSGSGSGTDFTLTISSLQPEDFATYYCQQYFNFPLTFGQGTKVEIKR	–	EC50 (read off the curve) [1]: ~200 nM
anti-Siglec-3 antibody S3H1-85 reformatted into human IgG1 or IgG4 (antibody, V domains shown, also called 1S3H1-85; 4S3H1-85) VH: VQLVESGGGLVQPGGSLRLSCAASGFTIGSGWIHWVRQAPGKGLEWVAGIGPYGGYTYYADSVKGRFTISADTSKNTAYLQMNSLRAEDTAVYYCARFNDHWDLWMDYWGQGTLVTVSS VL: DIQMTQSPSSLSASVGDRVTITCRASQDVYGYVAWYQQKPGKAPKLLISYTPGLYSGVPSRFSGSGSGTDFTLTISSLQPEDFATYYCQQYYDFPITFGQGTKVEIKR	binds	–
anti-Siglec-3 antibody S3H1-76 reformatted into human IgG1 or IgG4 (antibody, V domains shown, also called 1S3H1-76; 4S3H1-76) VH: VQLVESGGGLVQPGGSLRLSCAASGFTISSSYIHWVRQAPGKGLEWVAGIGPYGGYTYYADSVKGRFTISADTSKNTAYLQMNSLRAEDTAVYYCARFNDHWDLWMDYWGQGTLVTVSS VL: DIQMTQSPSSLSASVGDRVTITCRASQDVYGYVAWYQQKPGKAPKLLISYTPGLYSGVPSRFSGSGSGTDFTLTISSLQPEDFATYYCQQYYDFPITFGQGTKVEIKR	binds	–
anti-Siglec-3 antibody H3-7G reformatted into human IgG1 or IgG4 (antibody, V domains shown, also called 1H3-7G; 4H3-7G) VH: VQLVESGGGLVQPGGSLRLSCAASGFTIDDGFIHWVRQAPGKGLEWVAGIGPYGGYTYYADSVKGRFTISADTSKNTAYLQMNSLRAEDTAVYYCARFRDDKPQMMDYWGQGTLVTVSS VL: DIQMTQSPSSLSASVGDRVTITCRASQDVYGYVAWYQQKPGKAPKLLISYTPGLYSGVPSRFSGSGSGTDFTLTISSLQPEDFATYYCQQYYDFPITFGQGTKVEIKR	binds	–
anti-Siglec-3 antibody S3H2-10 reformatted into human IgG1 or IgG4 (antibody, V domains shown, also called 1S3H2-10; 4S3H2-10) VH: VQLVESGGGLVQPGGSLRLSCAASGFTIDDGFIHWVRQAPGKGLEWVAAIPPLQGKTYYADSVKGRFTISADTSKNTAYLQMNSLRAEDTAVYYCARFNDHWDLWMDYWGQGTLVTVSS VL: DIQMTQSPSSLSASVGDRVTITCRASQDVYGYVAWYQQKPGKAPKLLISYTPGLYSGVPSRFSGSGSGTDFTLTISSLQPEDFATYYCQQYYDFPITFGQGTKVEIKR	binds	–
anti-Siglec-3 antibody S3PL3-46 reformatted into human IgG1 or IgG4 (antibody, V domains shown, also called 1S3PL3-46; 4S3PL3-46) VH: VQLVESGGGLVQPGGSLRLSCAASGFTIDDGFIHWVRQAPGKGLEWVAGIGPYGGYTYYADSVKGRFTISADTSKNTAYLQMNSLRAEDTAVYYCARFNDHWDLWMDYWGQGTLVTVSS VL: DIQMTQSPSSLSASVGDRVTITCRASQDVYGYVAWYQQKPGKAPKLLISYTPGLYSGVPSRFSGSGSGTDFTLTISSLQPEDFATYYCQQYSRMPITFGQGTKVEIKR	binds	–
anti-Siglec-3 antibody H3-10E reformatted into human IgG1 or IgG4 (antibody, V domains shown, also called 1H3-10E; 4H3-10E) VH: VQLVESGGGLVQPGGSLRLSCAASGFTIDDGFIHWVRQAPGKGLEWVAGIGPYGGYTYYADSVKGRFTISADTSKNTAYLQMNSLRAEDTAVYYCARFQNSPTKTMDYWGQGTLVTVSS VL: DIQMTQSPSSLSASVGDRVTITCRASQDVYGYVAWYQQKPGKAPKLLISYTPGLYSGVPSRFSGSGSGTDFTLTISSLQPEDFATYYCQQYYDFPITFGQGTKVEIKR	binds	–
1H3-3A (antibody, human IgG1, kappa) light chain: DGTDIQMTQSPSSLSASVGDRVTITCRASQDVYGYVAWYQQKPGKAPKLLISYTPGLYSGVPSRFSGSGSGTDFTLTISSLQPEDFATYYCQQYYDFPITFGQGTKVEIKRTVAAPSVFIFPPSDEQLKSGTASVVCLLNNFYPREAKVQWKVDNALQSGNSQESVTEQDSKDSTYSLSSTLTLSKADYEKHKVYACEVTHQGLSSPVTKSFNRGEC heavy chain: not shown	–	EC50 (read off the curve) [1]: ~100 nM; EC50 (read off the curve) [3]: ~30 nM
anti-Siglec-3 antibody 4H3-3A (scFv clone H3-3A reformatted into hIgG4) (antibody, Human IgG4 format) heavy: not shown light: DGTDIQMTQSPSSLSASVGDRVTITCRASQDVYGYVAWYQQKPGKAPKLLISYTPGLYSGVPSRFSGSGSGTDFTLTISSLQPEDFATYYCQQYYDFPITFGQGTKVEIKRTVAAPSVFIFPPSDEQLKSGTASVVCLLNNFYPREAKVQWKVDNALQSGNSQESVTEQDSKDSTYSLSSTLTLSKADYEKHKVYACEVTHQGLSSPVTKSFNRGEC	–	Kd [4]: 8.88 nM; koff [4]: 0.0373 s⁻¹; kon [4]: 4.21e+06 M⁻¹ s⁻¹; binding result [5]: no binding

Second part, led by results:

binding result [2]	Binder	also measured
binds	anti-Siglec-3 antibody S3H1-29 reformatted into human IgG1 or IgG4 (antibody, V domains shown, also called 1S3H1-29; 4S3H1-29) VH: VQLVESGGGLVQPGGSLRLSCAASGFTIHGSWIHWVRQAPGKGLEWVAGIGPYGGYTYYADSVKGRFTISADTSKNTAYLQMNSLRAEDTAVYYCARFNDHQDLWMDYWGQGTLVTVSS VL: DIQMTQSPSSLSASVGDRVTITCRASQDVYGYVAWYQQKPGKAPKLLISYTPGLYSGVPSRFSGSGSGTDFTLTISSLQPEDFATYYCQQYYDFPITFGQGTKVEIKR	–
binds	anti-Siglec-3 antibody H3-10F reformatted into human IgG1 or IgG4 (antibody, V domains shown, also called 1H3-10F; 4H3-10F) VH: VQLVESGGGLVQPGGSLRLSCAASGFTIDDGFIHWVRQAPGKGLEWVAGIGPYGGYTYYADSVKGRFTISADTSKNTAYLQMNSLRAEDTAVYYCARFATHDQPLMDYWGQGTLVTVSS VL: DIQMTQSPSSLSASVGDRVTITCRASQDVYGYVAWYQQKPGKAPKLLISYTPGLYSGVPSRFSGSGSGTDFTLTISSLQPEDFATYYCQQYYDFPITFGQGTKVEIKR	–
binds	anti-Siglec-3 antibody S3H2-8 reformatted into human IgG1 or IgG4 (antibody, V domains shown, also called 1S3H2-8; 4S3H2-8) VH: VQLVESGGGLVQPGGSLRLSCAASGFTIDDGFIHWVRQAPGKGLEWVAAIKPRQGDTSYADSVKGRFTISADTSKNTAYLQMNSLRAEDTAVYYCARFNDHWDLWMDYWGQGTLVTVSS VL: DIQMTQSPSSLSASVGDRVTITCRASQDVYGYVAWYQQKPGKAPKLLISYTPGLYSGVPSRFSGSGSGTDFTLTISSLQPEDFATYYCQQYYDFPITFGQGTKVEIKR	–
binds	anti-Siglec-3 antibody S3H2-12 reformatted into human IgG1 or IgG4 (antibody, V domains shown, also called 1S3H2-12; 4S3H2-12) VH: VQLVESGGGLVQPGGSLRLSCAASGFTIDDGFIHWVRQAPGKGLEWVATISPNTGHTNYADSVKGRFTISADTSKNTAYLQMNSLRAEDTAVYYCARFNDHWDLWMDYWGQGTLVTVSS VL: DIQMTQSPSSLSASVGDRVTITCRASQDVYGYVAWYQQKPGKAPKLLISYTPGLYSGVPSRFSGSGSGTDFTLTISSLQPEDFATYYCQQYYDFPITFGQGTKVEIKR	–
binds	anti-Siglec-3 antibody H3-9E reformatted into human IgG1 or IgG4 (antibody, V domains shown, also called 1H3-9E; 4H3-9E) VH: VQLVESGGGLVQPGGSLRLSCAASGFTIDDGFIHWVRQAPGKGLEWVAGIGPYGGYTYYADSVKGRFTISADTSKNTAYLQMNSLRAEDTAVYYCARFGHPPYDYMDYWGQGTLVTVSS VL: DIQMTQSPSSLSASVGDRVTITCRASQDVYGYVAWYQQKPGKAPKLLISYTPGLYSGVPSRFSGSGSGTDFTLTISSLQPEDFATYYCQQYYDFPITFGQGTKVEIKR	–
binds	anti-Siglec-3 antibody H3-8F reformatted into human IgG1 or IgG4 (antibody, V domains shown, also called 1H3-8F; 4H3-8F) VH: VQLVESGGGLVQPGGSLRLSCAASGFTIDDGFIHWVRQAPGKGLEWVAGIGPYGGYTYYADSVKGRFTISADTSKNTAYLQMNSLRAEDTAVYYCARFRDTQSQTMDYWGQGTLVTVSS VL: DIQMTQSPSSLSASVGDRVTITCRASQDVYGYVAWYQQKPGKAPKLLISYTPGLYSGVPSRFSGSGSGTDFTLTISSLQPEDFATYYCQQYYDFPITFGQGTKVEIKR	–
binds	anti-Siglec-3 antibody S3H1-74 reformatted into human IgG1 or IgG4 (antibody, V domains shown, also called 1S3H1-74; 4S3H1-74) VH: VQLVESGGGLVQPGGSLRLSCAASGFTIHGSWIHWVRQAPGKGLEWVAGIGPYGGYTYYADSVKGRFTISADTSKNTAYLQMNSLRAEDTAVYYCARFNDHWDLWMDYWGQGTLVTVSS VL: DIQMTQSPSSLSASVGDRVTITCRASQDVYGYVAWYQQKPGKAPKLLISYTPGLYSGVPSRFSGSGSGTDFTLTISSLQPEDFATYYCQQYYDFPITFGQGTKVEIKR	–
